Test results: article PMC5440810

Legend:
[1] = target: P18-I10/H2-D^d, BirA-tagged and biotinylated (mouse | not stated); test: SPR
[2] = target: P18-I10/H2-D^d (peptide-loaded MHC class I with β2m) (mouse | not stated); test: AUC

Question: How did the Kd [1] turn out when “B4.2.3 TCR, soluble disulfide-linked αβ heterodimer (extracellular portions)” was run?
Answer: 0.54 µM

Question: And the Kd [2]?
Answer: 0.23 µM

Question: And the stoichiometry N [2]?
Answer: 1
